From patent US20110159037A1

Key:
Ro (SSA) = assay: Luminex AtheNA Multi-Lyte ANA Test, 0.15 µg mab per test
Histones = assay: as above
[1] = target: Centromere B (Homo sapiens (Human)) (UniProt P07199); assay: as above
[2] = target: HIV-1 envelope gp41 (virus of the PBMC neutralization assay) (HIV-1, isolate not stated)

Row | Substance | relative units (relative units based on a standard curve) [1] | HIV Neutralization ID50 In PBMC assay [2] | also measured
1 | Mab 4E10 (antibody) |  |  | relative units (relative units based on a standard curve) (Ro (SSA)): 221
2 | Mab 2F5 (antibody) | 1780 | 1 µg/mL | relative units (relative units based on a standard curve) (Ro (SSA)): 290; relative units (relative units based on a standard curve) (Histones): 1010
3 | A32 (antibody) | 1130 |  | 
4 | soluble HIV-1 Env gp140 oligomers (CON-S) |  |  | IC50 (Mab 4E10): 145 nM
5 | IgG1b12 (antibody) | 479 |  | relative units (relative units based on a standard curve) (Histones): 185
6 | 13H11 (antibody) |  | > 50 µg/mL | 
7 | 98-6 (antibody) |  | 3.5 µg/mL | 
